Experimental data as given in publication PMC6008332, “Nuclear PTEN safeguards pre-mRNA splicing to link Golgi apparatus for its tumor suppressive role” (Nature Communications, 2018).

Columns and labels:
Details in all cases: both partners purified
[1] = molecular target: T1, GST-tagged USP7 (HAUSP7) on the human proteome microarray (human, UniProt Q93009 1-1102); test: peptide or protein array; human proteome microarray of 20,240 N-terminally GST-tagged proteins probed with 5 μg/5 ml Biotin-labeled His-PTEN, 1 h room temperature; Cy5-conjugated streptavidin; cutoff SNR ≥3 and fold change ≥5
T1 construct: USP7 spotted on the human proteome microarray; source: bought: human proteome microarray (ProtoArray Human Protein Microarray, Wayen Biotechnologies); not shown: GST, N-terminal, kept

[2] = molecular target: T2, GST-tagged U2AF2 on the human proteome microarray (human, UniProt P26368 1-475); test: as above
T2 construct: U2AF2 spotted on the human proteome microarray; also called U2AF2 (HPM); source: bought: human proteome microarray (ProtoArray Human Protein Microarray, Wayen Biotechnologies); not shown: GST, N-terminal, kept

[3] = molecular target: T3, GST-tagged HNRNPK on the human proteome microarray (human, UniProt P61978 1-463); test: as above
T3 construct: HNRNPK spotted on the human proteome microarray; also called HNRNPK (HPM); source: bought: human proteome microarray (ProtoArray Human Protein Microarray, Wayen Biotechnologies); not shown: GST, N-terminal, kept

[4] = molecular target: T4, GST-tagged SF3B4 on the human proteome microarray (human, UniProt Q15427 1-424); test: as above
T4 construct: SF3B4 spotted on the human proteome microarray; also called SF3B4 (HPM); source: bought: human proteome microarray (ProtoArray Human Protein Microarray, Wayen Biotechnologies); not shown: GST, N-terminal, kept
T4 sequence (looked up): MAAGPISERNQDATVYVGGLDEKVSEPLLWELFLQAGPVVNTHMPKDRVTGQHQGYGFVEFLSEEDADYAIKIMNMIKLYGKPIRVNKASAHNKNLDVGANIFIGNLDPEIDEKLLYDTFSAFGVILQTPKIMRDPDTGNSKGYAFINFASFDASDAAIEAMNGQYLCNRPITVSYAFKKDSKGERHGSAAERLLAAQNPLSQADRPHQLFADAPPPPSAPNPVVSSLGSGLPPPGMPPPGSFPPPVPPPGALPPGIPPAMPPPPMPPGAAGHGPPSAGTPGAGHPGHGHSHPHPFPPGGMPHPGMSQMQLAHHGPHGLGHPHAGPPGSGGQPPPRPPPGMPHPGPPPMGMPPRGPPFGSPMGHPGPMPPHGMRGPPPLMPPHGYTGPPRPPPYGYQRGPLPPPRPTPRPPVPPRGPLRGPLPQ

[5] = molecular target: T5, GST-tagged HNRNPU on the human proteome microarray (human, UniProt Q00839 1-825); test: as above
T5 construct: HNRNPU spotted on the human proteome microarray; also called HNRNPU (HPM); source: bought: human proteome microarray (ProtoArray Human Protein Microarray, Wayen Biotechnologies); not shown: GST, N-terminal, kept

[6] = molecular target: T6, GST-tagged APC3 (CDC27) on the human proteome microarray (human, UniProt P30260 1-824); test: as above
T6 construct: APC3 (CDC27) spotted on the human proteome microarray; source: bought: human proteome microarray (ProtoArray Human Protein Microarray, Wayen Biotechnologies); not shown: GST, N-terminal, kept

His-tagged U2AF2 = molecular target: T7, His-tagged U2AF2 (UniProt P26368 1-475); test: pull-down; 15 μg His-tagged U2AF2 mixed with 4 μg GST or GST-PTEN bound to glutathione-sepharose beads in 0.5 ml binding buffer, overnight at 4 °C; immunoblot for His and GST
T7 construct: Recombinant full-length U2AF2; also called His-U2AF2; source: E. coli (pET-28a), purified (nickel chelating, ion exchange, gel filtration)

Measured: binding result

B1: Biotin-labeled His-PTEN (natural protein)
chain: not shown
modifications: biotin (sites not given)
notes: Recombinant full-length PTEN; also called biotinylated PTEN protein; PTEN−biotin conjugates; source: E. coli (pET-28a), purified (nickel chelating, ion exchange, gel filtration), labeled with biotin
not listed: His-tagged U2AF2
binds: all other assays above

B2: GST-tagged PTEN (natural protein)
chain: not shown
notes: PTEN CDS inserted into the pEGX-4T-3 vector (so in the source); also called GST-PTEN
binds: His-tagged U2AF2
